The supplement of paper PMC9170038

Legend:
MS2 coat protein [1] = assay: apparent KD of MS2 coat protein, switch ON state; designed switch direction (-1 OFF switch, 1 ON switch): -1; higher = weaker reporter binding; conditions: FMN input: 0 or 200 uM; Eterna round: R93 (includes R88 designs)
Summary of the method: (§1)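 For every design, apparent KD is the median of normalised binding-curve fits from its clusters. The RNA switches were transcribed on-chip from Illumina sequencing clusters and titrated with SNAP-549-labelled MS2 coat protein (twofold steps, 0.7 or 1.5 nM to 3 µM; 0.8–1.5 h to 10–20 min per step). Titrations used 100 mM Tris-HCl pH 7.5, 80 mM KCl, 4 mM MgCl2, without or with constant ligand.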

MS2 coat protein [2] = assay: apparent KD of MS2 coat protein, switch OFF state (with FMN for OFF switches, without FMN for ON switches); designed switch direction (-1 OFF switch, 1 ON switch): -1; higher = weaker reporter binding; conditions: FMN input: 0 or 200 uM; Eterna round: R93 (includes R88 designs)
Summary of the method: as §1

Sequence | apparent KD of MS2 coat protein (MS2 coat protein [1]) [nM] | apparent KD of MS2 coat protein (MS2 coat protein [2]) [nM]
AUAAACUGAGGAUAUACAUGAGGAUCACCCAUGUAAAAAAAAAAAUGAUCCUCAAAAAGUAGAAGGCAGAAUAA [JR_Exc003_Sub016] | 23.4 | 35.8
CUCAUGUCAGGAUAUCAGUAGUAAAAAAAUAAAAUUACUACUGAGAAGGGACAUGAGGAUCACCCAUGUCAAAA [EX4 363: Super Stable 63] | 20.7 | 19.8
AAAGAUACAGGAUAUACAUGAGGAUCACCCAUGUGGAAUCAAAAAUGGGAAAAAGAAAGUAGAAGGGUAUAAAA [Ex 3 May 38] | 30.6 | 87.3
AACUGACAUGAGGAUCACCCAUGUCAGGAUAUGCUUCAUAAAAAGAAAUAAAAAUGAUGCAGAAGGGAUAUGGG [Design 34 :P Sub-opt 10] | 24.6 | 37.1
UCCUCACAUGAGGAUCACCCAUGUGAGGAUAUCUGAAAAAAAAAAAAAAAAAAAAAUCAGAGAAGGCACAUGGG [Design 11: Super Stable Short Helix 1] | 37.1 | 4.55
GGAUGCCAAGGAUAUACAUGAGGAUCACCCAUGUGAGAGAAAAAAGUGAGAAAGAAAAGUAGAAGGUGGUGUCG [salish99-ex3-92] | 33.1 | 65.2
AGCUAGUCAGGAUAUACGAGAAUGACAAAAGACGUGAAGGGACAUGAGGAUCACCCAUGUAGAAGGGACUAGCA [Diamond 24] | 39.2 | 117
AAAAAGGCAGGAUAUGCAUACCCACGGAAAAAAAGGCUGGGACAUGAGGAUCACCCAUGUAGAAGGGCCAAAAA [Dora Explored 12 - Jieux - Exclusion 2] | 21.5 | 14.5
AACAGUACAGGAUAUACAUGAGGAUCACCCAUGUAAAGGGAAAGUGGCGUACCACAAAGUAGAAGGGUACUGGA [Moding Maslow revisited (73) 5] | 40.1 | 175
UAUACGUGAGGAUAUGCGAAUACCACGUUAGACAUAUAGACGCAGAAGGCACAUGAGGAUCACCCAUGUGAACC [JR_Exc004_Sub315] | 21.4 | 16.4
AAAGGACGAGGAUAUACAUGAGGAUCACCCAUGUAAAAAGCGUAAUAAAAGAACUUAUGUAGAAGGCGUCCAAA [Meechl Ex3 2 R2 v1] | 45 | 66.8
AAGAAACAUGAGGAUCACCCAUGUGAGGAUAUCCAAGAAAGAAAGAAAGAAAGAAGAAGGAGAAGGCACAAAGG [Quintus Ostorius Scapula] | 50.5 | 119
AAGAAGGUAGGAUAUACUAAAGAAAUAAAAAUAAAUAAAGAACAUGAGGAUCACCCAUGUAGAAGGGCCAAGAA [Merkheperre] | 54.4 | 50.8
CUCUUGUGAGGAUAUCGAAGAAAAGAAAAGAAAGAAAAGAACGAGAAGGCACAUGAGGAUCACCCAUGUAAGAA [EteRNA is fun!] | 53.1 | 61.8
AAAGAUGCAGGAUAUACAUGAGGAUCACCCAUGUUAGACCAGAAAUGGGAAAAAGAAAGUAGAAGGGCAUAAAA [Ex 3 May 33] | 18.2 | 119
AAAAAGUGAGGAUAUCCAGAUAAAAAAACGAAAAAAAAUCUGGAGAAGGCACAUGAGGAUCACCCAUGUAUGAC [Ex 4 May 6] | 32.7 | 38.2
GUCAGCUGAGGAUAUACAGGUGAUGCCGCAUAACAAAAUAUACAUGAGGAUCACCCAUGUAGAAGGCGGAAGAC [Zalaa] | 73.4 | 20.2
AACAGACAUGAGGAUCACCCAUGUAAGGAUAUCCCAAACGAUAAAACAAGAAUGACAAGGAGAAGGUGCAGCAA [JR_Exc001_Sub006] | 62.8 | 50.8
AAAUGCUGAGGAUAUACAUGAGGAUCACCCAUGUAAAAUAAAUAAUGAGUGUAAACGUGUAGAAGGCAGCAUAA [Exclusion 3.14c (FMN+ favored )] | 41.1 | 19.5
AAAGGUGCAGGAUAUGCGUGGAAAAAGUGUAUUCAAAAAAAACAUGAGGAUCACCCAUGUAGAAGGGUACCAAA [MS2 Riboswitches On Chip Exclusion 2 wbt2] | 55.7 | 165
AUAGUACAUGAGGAUCACCCAUGUCAGGAUAUGCGAAACGAAAAAAAAAAAAAGUGAAGUAGAAGGGACUAUAA [EX1 Malc#9] | 29.8 | 30.4
CGUUGGCGAGGAUAUACAUGAGGAUCACCCAUGUGAGAGAAAAAAGUGAGAAAGAAAAGUAGAAGGCGCUGACC [salish99-ex3-13] | 45.1 | 162
AGAAAGUCAGGAUAUACGAAAAAAAAGGGAAACAACAAGGGACAUGAGGAUCACCCAUGUAGAAGGGACAAGAA [Diamond 98] | 92.8 | 140

Sequence | apparent KD of MS2 coat protein (MS2 coat protein [1]) [nM] | apparent KD of MS2 coat protein (MS2 coat protein [2]) [nM]
GAAAAACAUGAGGAUCACCCAUGUAAGGAUAUGCUAAAAAACGCAAAAAAAGCGAAUAGCAGAAGGUACAAAAA [Mat - Exclusion 1 - Eli mod - D83] | 20.6 | 33.4
AAAAAUCGAGGAUAUACAUGAGGAUCACCCAUGUCAAAAAAUGACUACACAAAAGAAAGUAGAAGGCGAUAAAA [Ex 3 May 17] | 28.5 | 31
AGCACGGUAGGAUAUACGAACAAAACGGGAGAACUAAAGGGACAUGAGGAUCACCCAUGUAGAAGGACCAAGCA [Diamond 90] | 42 | 119
CAGUACUGAGGAUAUACAUGAGGAUCACCCAUGUAUCAAAGCUAGGAAACUAGCACAUGUAGAAGGCAGUACUG [Ex3: 823] | 25.7 | 132
AAAAAGUCAGGAUAUACAUGAGGAUCACCCAUGUAGCAUACGAAAAAGAGUGUGCAGUGUAGAAGGGACAAAAA [Exclusion3-cac3] | 19.5 | 21.2
AAGAACCGAGGAUAUACAUGAGGAUCACCCAUGUAAAAGAAAGAAAAGGGAAAGAAAAGUAGAAGGCGGAAGAA [Aakheperenre Thutmose II] | 42.8 | 55.5
AGCUAGUCAGGAUAUACGAGAAAGAAAGAAGACGUGAAGGGACAUGAGGAUCACCCAUGUAGAAGGGACUAGCA [Diamond 26] | 30.3 | 67.1
AGCAAACAUGAGGAUCACCCAUGUUAGGAUAUGAACGAAAUAAAAUAAAAAUAAAAGUUCAGAAGGGACGAGCA [Mat - Exclusion 1 - Eli mod - D27] | 22.4 | 37.1
ACUAAACGAGGAUAUACUAACGAACCUCAAACAUAGAUAAGACAUGAGGAUCACCCAUGUAGAAGGCGUAGACU [JR_Exc002_Sub008] | 74.6 | 59.7
AAAAAGUGAGGAUAUACAUGAGGAUCACCCAUGUGAAAUCGGAAAAAAAACGAAAAAAGUAGAAGGCACAAAAA [Fiskers Exclusion 3 D3] | 19.1 | 22.1
AAGAAGCAAGGAUAUACAUGAGGAUCACCCAUGUAAAAGAAAGAAAAGGGAAAGAAAAGUAGAAGGUGCAAGAA [Menmaatre Seti I] | 21.6 | 27
CUCAAGUUAGGAUAUGAAAGAAAAGAAGAGAAAGAAAAGAAUCAGAAGGAACAUGAGGAUCACCCAUGUAAGAA [EteRNA is fun!] | 29.7 | 19.5
AAAAAAAAAGGAUAUACAGGAGGUAAGGUCGAAAAAAAAAAACAUGAGGAUCACCCAUGUAGAAGGUUUAAAAA [Excls2-VIII] | 27 | 30.6
UCGUGGUCAGGAUAUACAUGAGGAUCACCCAUGUAAAAGAACACAAAGGAGAGACGACGUAGAAGGGACAAAUA [Erqugere] | 43.7 | 42.1
AAGAAUAGAGGAUAUACAAGGAAGAAAGAAAAGAAAAGAAAACAUGAGGAUCACCCAUGUAGAAGGCUAUAGAA [EteRNA is fun!] | 30.9 | 26.2
AAAAGAAAAGGAUAUAAAAAGAAAAGUCAGGAUAUAGGAAACUAGAAGGGACAUGAGGAUCACCCAUGUAAAAG [Meechl Ex4 R2 m2] | 35.9 | 71.9
AGUUGGCGAGGAUAUACAUGAGGAUCACCCAUGUGAAAGAAAAAAGUGAAAAAGCAAAGUAGAAGGCGCUGACA [73%, Moding Norbert Elias, 5] | 34.9 | 192
GCAAAGUGAGGAUAUACGCGAACAAAAAUAAAAAAGAAAGCGUAGAAGGCACAUGAGGAUCACCCAUGUCCAGC [Mat - Exaclusion 4 - Eli mod - D77] | 23.7 | 30.3
GAAAAGUCAGGAUAUGUACAAAAUAAAAUAAAAAUAAAAGUACAGAAGGGACAUGAGGAUCACCCAUGUAAAAG [Mat - Exclusion 4 - Mayanna - D120] | 72.4 | 54.2
AACAGGUGAGGAUAUCGAACAACAACAACAACAACAACAAACGAGAAGGCACAUGAGGAUCACCCAUGUAAGAA [Exclusion 4C] | 19.6 | 16.6
GCUGGCGUAGGAUAUACAUGAGGAUCACCCAUGUGAGAGAAAAAAGUGAGAAAGAAAAGUAGAAGGACGUUAGG [salish99-ex3-116] | 40.4 | 106
AACGCGUCAGGAUAUAGCAUAAAUUACGUAGUACGACCAUACUAGAAGGGACAUGAGGAUCACCCAUGUGGGUA [JR_Exc004_Sub207] | 167 | 90.4
